Measurements published in publication PMC4358367, “Structural basis of diverse membrane target recognitions by ankyrins” (eLife, 2014).
Positions count from the first letter of the chain named. Numbers in names are those of the source. Where two headings read alike, the source gives them in different places.

Key:
[1] = molecular target: T1, AnkG_repeats (24 ANK repeats of rat 190 kDa ankyrin-G, residues 38–855) (rat, UniProt O70511 38-855); test: ITC
T1 chain: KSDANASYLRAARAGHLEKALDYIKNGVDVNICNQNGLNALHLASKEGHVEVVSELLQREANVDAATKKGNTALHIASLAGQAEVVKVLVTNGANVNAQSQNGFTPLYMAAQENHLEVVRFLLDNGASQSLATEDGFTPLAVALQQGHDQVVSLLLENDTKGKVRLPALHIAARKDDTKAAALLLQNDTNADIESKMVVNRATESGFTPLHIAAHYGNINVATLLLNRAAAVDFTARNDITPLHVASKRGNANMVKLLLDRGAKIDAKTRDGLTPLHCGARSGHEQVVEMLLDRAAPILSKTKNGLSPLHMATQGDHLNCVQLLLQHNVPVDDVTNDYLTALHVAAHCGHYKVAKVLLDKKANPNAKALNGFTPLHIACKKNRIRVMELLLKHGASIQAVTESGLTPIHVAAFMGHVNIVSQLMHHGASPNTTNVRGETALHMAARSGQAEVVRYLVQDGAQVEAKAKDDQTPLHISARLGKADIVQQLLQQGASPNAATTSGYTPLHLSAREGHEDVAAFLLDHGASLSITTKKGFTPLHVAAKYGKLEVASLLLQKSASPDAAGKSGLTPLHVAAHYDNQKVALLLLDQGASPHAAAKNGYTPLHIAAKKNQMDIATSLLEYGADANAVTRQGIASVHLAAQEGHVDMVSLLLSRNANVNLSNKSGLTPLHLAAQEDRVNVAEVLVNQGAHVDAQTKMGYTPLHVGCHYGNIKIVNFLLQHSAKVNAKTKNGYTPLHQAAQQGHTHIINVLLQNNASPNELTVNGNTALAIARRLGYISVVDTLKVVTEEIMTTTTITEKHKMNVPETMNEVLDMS

[2] = molecular target: T1, AnkG_repeats (24 ANK repeats of rat 190 …); test: ITC
[3] = molecular target: T2, AnkB_repeats (24 ANK repeats of human 220 kDa ankyrin-B, residues 28–873) (human, UniProt Q01484 28-873); test: ITC; VP-ITC at 25°C; 50 mM Tris pH 7.5, 100 mM NaCl, 1 mM EDTA, 1 mM DTT; binding partner (AS, Nav1.2 ABD proteins, neurofascin ABD; 200–300 µM) in the syringe, ANK repeats (20–30 µM) in the cell; one-site binding model; details: both partners purified
T2 construct: ankyrin-B (AnkB), human, 220 kDa isoform used as template, ANK repeats, residues 28-873; source: E. coli BL21 (DE3), purified
T2 sequence (looked up): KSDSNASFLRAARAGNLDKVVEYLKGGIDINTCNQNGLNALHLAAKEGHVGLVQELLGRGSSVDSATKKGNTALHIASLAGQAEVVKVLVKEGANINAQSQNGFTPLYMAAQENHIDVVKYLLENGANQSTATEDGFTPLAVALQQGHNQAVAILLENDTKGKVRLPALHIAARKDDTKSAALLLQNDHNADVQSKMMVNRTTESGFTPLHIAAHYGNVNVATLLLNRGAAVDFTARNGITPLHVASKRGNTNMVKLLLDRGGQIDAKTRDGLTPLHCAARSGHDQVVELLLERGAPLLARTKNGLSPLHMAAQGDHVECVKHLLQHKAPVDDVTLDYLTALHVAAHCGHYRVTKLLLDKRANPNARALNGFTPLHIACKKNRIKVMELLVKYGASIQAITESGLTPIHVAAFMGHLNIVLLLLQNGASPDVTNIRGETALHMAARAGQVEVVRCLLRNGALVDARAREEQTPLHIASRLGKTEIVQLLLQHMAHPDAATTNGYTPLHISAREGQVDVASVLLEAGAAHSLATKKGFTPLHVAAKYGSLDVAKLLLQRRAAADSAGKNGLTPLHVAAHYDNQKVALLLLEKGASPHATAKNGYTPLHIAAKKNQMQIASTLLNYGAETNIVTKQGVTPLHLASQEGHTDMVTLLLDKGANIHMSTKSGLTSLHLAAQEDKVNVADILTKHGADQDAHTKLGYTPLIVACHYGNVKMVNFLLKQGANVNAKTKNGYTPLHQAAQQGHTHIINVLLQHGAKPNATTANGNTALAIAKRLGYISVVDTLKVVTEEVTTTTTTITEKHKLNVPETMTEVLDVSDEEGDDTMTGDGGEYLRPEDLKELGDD

[4] = molecular target: T3, AnkB_repeats_R1–9 (first nine ANK repeats of AnkB, residues 28–318, followed by the capping sequence 814–822) (human, UniProt Q01484 28-318; Q01484 814-822); test: ITC
T3 chain: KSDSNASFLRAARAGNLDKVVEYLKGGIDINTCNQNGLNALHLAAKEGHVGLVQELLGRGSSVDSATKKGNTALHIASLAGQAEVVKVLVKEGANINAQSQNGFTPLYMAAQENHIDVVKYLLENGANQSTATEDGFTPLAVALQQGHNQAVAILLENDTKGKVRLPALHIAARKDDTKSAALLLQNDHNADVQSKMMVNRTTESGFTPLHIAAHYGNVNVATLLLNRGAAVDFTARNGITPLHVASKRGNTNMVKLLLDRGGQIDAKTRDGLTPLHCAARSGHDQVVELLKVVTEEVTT

[5] = molecular target: T4, AnkG ANK repeats R1–6 (truncation of AnkG_repeats with C-terminal capping sequence) (rat | human); test: ITC
T4 chain: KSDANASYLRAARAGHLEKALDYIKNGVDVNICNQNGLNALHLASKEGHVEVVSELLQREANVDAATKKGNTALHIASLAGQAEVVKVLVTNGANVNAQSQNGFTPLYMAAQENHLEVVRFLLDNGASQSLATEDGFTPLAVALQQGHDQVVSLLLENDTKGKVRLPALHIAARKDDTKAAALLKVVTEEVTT

AnkB R1-14 = molecular target: T5, AnkB R1-14 (Homo sapiens); test: ITC
T5 chain: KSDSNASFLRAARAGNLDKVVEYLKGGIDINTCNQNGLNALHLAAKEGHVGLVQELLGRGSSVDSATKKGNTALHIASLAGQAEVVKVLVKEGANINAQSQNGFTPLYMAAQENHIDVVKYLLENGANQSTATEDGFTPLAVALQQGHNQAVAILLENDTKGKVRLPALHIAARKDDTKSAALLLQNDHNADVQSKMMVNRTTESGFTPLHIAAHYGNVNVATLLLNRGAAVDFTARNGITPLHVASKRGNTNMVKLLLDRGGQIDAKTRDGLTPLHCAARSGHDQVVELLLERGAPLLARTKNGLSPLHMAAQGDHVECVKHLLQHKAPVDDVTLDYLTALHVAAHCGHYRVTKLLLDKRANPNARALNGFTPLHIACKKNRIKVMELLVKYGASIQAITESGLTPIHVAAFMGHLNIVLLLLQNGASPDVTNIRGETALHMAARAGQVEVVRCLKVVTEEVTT

[6] = molecular target: T1, AnkG_repeats (24 ANK repeats of rat 190 …); test: ITC
[7] = molecular target: T6, AnkR_repeats (24 ANK repeats of ankyrin-R, residues 42–853) (mouse, UniProt Q02357-6 42-853); test: ITC; VP-ITC at 25°C; 50 mM Tris pH 7.5, 100 mM NaCl, 1 mM EDTA, 1 mM DTT; binding partner (AS, Nav1.2 ABD proteins, neurofascin ABD; 200–300 µM) in the syringe, ANK repeats (20–30 µM) in the cell; one-site binding model; details: both partners purified
T6 construct: ankyrin-R (AnkR), mouse, ANK repeats, residues 42-853, PCR amplified from a mouse muscle cDNA library; The thioredoxin-His6 tag was removed with HRV 3C protease 'when needed'; also called AnkR ANK repeats; source: E. coli BL21 (DE3), purified
T6 sequence (looked up): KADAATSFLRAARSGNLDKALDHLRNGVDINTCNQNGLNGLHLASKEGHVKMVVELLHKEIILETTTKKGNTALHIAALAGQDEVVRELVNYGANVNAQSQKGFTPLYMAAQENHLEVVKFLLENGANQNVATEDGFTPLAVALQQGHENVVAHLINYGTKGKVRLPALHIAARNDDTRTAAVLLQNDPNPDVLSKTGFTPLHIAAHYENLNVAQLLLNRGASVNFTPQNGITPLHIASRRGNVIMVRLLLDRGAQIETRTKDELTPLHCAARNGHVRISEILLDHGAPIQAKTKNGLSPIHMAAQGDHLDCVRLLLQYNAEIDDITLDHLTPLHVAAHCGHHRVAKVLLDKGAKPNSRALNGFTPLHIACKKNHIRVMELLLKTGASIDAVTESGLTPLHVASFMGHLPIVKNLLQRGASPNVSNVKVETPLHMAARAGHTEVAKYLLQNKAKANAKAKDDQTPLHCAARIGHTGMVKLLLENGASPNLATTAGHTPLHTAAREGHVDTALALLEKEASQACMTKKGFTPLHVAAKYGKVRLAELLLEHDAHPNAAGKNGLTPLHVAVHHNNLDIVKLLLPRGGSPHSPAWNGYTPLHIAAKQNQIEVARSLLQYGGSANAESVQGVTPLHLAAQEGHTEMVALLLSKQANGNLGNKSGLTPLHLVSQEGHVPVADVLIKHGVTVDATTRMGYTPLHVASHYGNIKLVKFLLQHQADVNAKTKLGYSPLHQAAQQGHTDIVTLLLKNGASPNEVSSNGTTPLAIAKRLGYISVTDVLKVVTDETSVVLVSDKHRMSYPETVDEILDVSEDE

[8] = molecular target: T7, AnkG_repeats (24 ANK repeats of rat 190 kDa ankyrin-G, residues 38–855) (rat, UniProt O70511 38-855); test: as above; details: both partners purified
T7 construct: ankyrin-G (AnkG), rat, 190 kDa isoform used as template, ANK repeats, residues 38-855; also called AnkG ANK repeats; wild-type ANK repeats; source: E. coli BL21 (DE3), purified
T7 sequence (looked up): T1 chain

[9] = molecular target: T1, AnkG_repeats (24 ANK repeats of rat 190 …); test: ITC
[10] = molecular target: T4, AnkG ANK repeats R1–6 (truncation of …); test: ITC

B1: Nfasc entire cytoplasmic tail (residues 1132–1240) (domain or fragment)
chain: KRSRGGKYPVREKKDVPLGPEDPKEEDGSFDYSDEDNKPLQGSQTSLDGTIKQQESDDSLVDYGEGGEGQFNEDGSFIGQYTVKKDKEETEGNESSEATSPVNAIYSLA
Kd [1]: 0.58 µM

B2: AnkR_AS (48-residue auto-inhibitory segment of AnkR, residues 1577–1624) (domain or fragment, mouse, UniProt Q02357-6 1577-1624, looked up)
chain: CADQYWNEVTVIDAIPLAATEHDTMLEMSDMQVWSAGLTPSLVTAEDS
notes: Free AS in ITC; source: E. coli BL21 (DE3), purified
Kd [2]: 0.46 µM | Kd [3]: 0.4 µM

B3: Nav1.2_ABD (ankyrin binding domain of Nav1.2, residues 1035–1129) (domain or fragment)
chain: KALDEIKPLEDLNNKKDSCISNHTTIEIGKDLNYLKDGNGTTSGIGSSVEKYVVDESDYMSFINNPSLTVTVPIAVGESDFENLNTEEFSSESDM
Kd [4]: 3.5 µM | Kd [5]: 2.3 µM | Kd (AnkB R1-14): 0.29 µM

B4: E1112K-Nav1.2 (ABD with the charge reversal mutation E1112K) (domain or fragment)
chain: B3 chain with E78K
Kd [6]: > 50 µM

B5: AnkR entire C-terminal regulatory domain (residues 1529–1907) (domain or fragment, mouse, UniProt Q02357-6 1529-1907, looked up)
chain: RQSRNLKPERRHGDREYSLSPSQVNGYSSLQDELLSPASLQYALPSPLCADQYWNEVTVIDAIPLAATEHDTMLEMSDMQVWSAGLTPSLVTAEDSSLECSKAEDSDAIPEWKLEGAHSEDTQGPELGSQDLVEDDTVDSDATNGLADLLGQEEGQRSEKKRQEVSGTEQDTETEVSLVSGQQRVHARITDSPSVRQVLDRSQARTLDWDKQGSTAVHPQEATQSSWQEEVTQGPHSFQRRITTIQGPEPGALQEYEQVLVSTREHVQRGPPETGSPKAGKEPSLWAPESAFSQEVQGDELQNIPGEQVTEEQFTDEQGNIVTKKIIRKVVRQVDSSGAIDTQQHEEVELRGSGLQPDLIEGRKGAQIVKRASLKRGKQ
notes: also called full length AnkR C-terminal domain; C-terminal tail of AnkR; source: E. coli BL21 (DE3), purified
Kd [7]: ~1 µM

B6: Nav1.2 ABD-N (N-terminal 68-residue fragment of loop 2, residues 1035–1102) (domain or fragment)
chain: KALDEIKPLEDLNNKKDSCISNHTTIEIGKDLNYLKDGNGTTSGIGSSVEKYVVDESDYMSFINNPSL
Kd [8]: ~8 µM

B7: Nav1.2_ABD-C (27-residue motif of loop 2, residues 1103–1129) (domain or fragment)
chain: TVTVPIAVGESDFENLNTEEFSSESDM
Kd [9]: 2.7 µM | Kd [10]: 2.3 µM
